Measured values taken from patent CN113939539A (BIOSION BIO TECH NANJING CO LTD, dated 2022).

Assays:
[1] = biological target: T1, 猴CSF-1R-his蛋白 (内部制备, SEQ ID NO: 62) (monkey (cynomolgus), UniProt P07333 20-517 (human entry), limits assumed); test: indirect ELISA on coated monkey CSF-1R-his
T1 construct: Made in-house, coated in the indirect ELISA; also called monkey CSF-1R-his (in-house)
T1 chain: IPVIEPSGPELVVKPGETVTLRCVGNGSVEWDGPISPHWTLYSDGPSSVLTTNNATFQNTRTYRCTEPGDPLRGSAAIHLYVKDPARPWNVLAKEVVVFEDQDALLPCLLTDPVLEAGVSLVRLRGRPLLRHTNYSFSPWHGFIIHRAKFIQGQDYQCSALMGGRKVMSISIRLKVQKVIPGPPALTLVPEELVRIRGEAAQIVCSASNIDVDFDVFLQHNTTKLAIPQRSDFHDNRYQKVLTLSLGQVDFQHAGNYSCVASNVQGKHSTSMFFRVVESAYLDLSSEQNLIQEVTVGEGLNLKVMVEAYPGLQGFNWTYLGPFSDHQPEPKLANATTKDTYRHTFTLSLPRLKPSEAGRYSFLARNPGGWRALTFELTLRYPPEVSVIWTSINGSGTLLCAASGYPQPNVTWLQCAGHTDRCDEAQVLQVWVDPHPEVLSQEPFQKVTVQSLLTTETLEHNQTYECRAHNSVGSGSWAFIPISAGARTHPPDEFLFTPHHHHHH

[2] = biological target: T2, 重组人CSF-1R-his蛋白 (Acro biosystems, Cat#CSR-H5228) (human, UniProt P07333 20-512); test: BLI (Octet), antibody on AHC sensor, CSF-1R-his in solution
T2 construct: Bought protein; also called human CSF-1R-his; not shown: His tag
T2 sequence (P07333 20-512 limits assumed): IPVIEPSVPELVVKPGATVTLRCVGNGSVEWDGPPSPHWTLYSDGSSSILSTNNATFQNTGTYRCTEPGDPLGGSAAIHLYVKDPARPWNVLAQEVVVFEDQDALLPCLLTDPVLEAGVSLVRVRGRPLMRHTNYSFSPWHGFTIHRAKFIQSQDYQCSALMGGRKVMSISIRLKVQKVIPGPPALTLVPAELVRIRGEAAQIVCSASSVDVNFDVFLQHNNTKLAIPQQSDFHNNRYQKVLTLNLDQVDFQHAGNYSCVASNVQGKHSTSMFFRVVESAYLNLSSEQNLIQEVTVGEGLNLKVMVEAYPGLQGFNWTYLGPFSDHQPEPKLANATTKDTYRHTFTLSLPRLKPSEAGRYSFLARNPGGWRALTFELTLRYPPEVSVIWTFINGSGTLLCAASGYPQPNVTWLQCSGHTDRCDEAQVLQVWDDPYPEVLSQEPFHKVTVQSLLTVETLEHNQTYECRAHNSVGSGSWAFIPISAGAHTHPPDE

生物素标记的人CSF-1R-Fc蛋白 = biological target: T3, 生物素标记的人CSF-1R-Fc蛋白 (human, biotin-labelled (sites not given)); test: capture ELISA: antibody captured by anti-human IgG, biotin-CSF-1R-Fc in solution
T3 construct: Made in-house; also called human CSF-1R-Fc
T3 sequence (chain, as listed by the source limits assumed): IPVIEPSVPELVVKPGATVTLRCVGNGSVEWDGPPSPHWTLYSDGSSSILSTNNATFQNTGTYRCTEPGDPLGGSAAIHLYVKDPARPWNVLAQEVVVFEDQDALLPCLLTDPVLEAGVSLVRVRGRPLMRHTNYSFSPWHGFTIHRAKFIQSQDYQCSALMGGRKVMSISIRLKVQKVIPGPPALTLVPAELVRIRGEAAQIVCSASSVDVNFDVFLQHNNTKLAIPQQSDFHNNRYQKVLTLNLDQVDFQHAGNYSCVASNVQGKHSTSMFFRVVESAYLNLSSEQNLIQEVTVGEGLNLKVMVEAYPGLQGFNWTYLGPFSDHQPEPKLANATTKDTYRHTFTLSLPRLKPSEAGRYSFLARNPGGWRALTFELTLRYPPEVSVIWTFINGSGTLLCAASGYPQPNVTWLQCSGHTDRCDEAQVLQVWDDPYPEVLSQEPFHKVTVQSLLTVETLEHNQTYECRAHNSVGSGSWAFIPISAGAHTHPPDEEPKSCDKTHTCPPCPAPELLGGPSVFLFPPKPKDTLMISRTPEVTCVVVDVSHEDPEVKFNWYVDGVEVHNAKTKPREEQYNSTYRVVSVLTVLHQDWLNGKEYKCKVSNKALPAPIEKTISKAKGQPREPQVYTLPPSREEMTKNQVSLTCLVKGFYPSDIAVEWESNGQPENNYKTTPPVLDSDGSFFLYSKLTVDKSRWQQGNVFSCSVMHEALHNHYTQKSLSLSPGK

Measured: binding result

B1: 卡比利珠单抗 (antibody, human IgG4 S228P, kappa, V domains shown)
VH: QVQLVQSGAEVKKPGSSVKVSCKASGYTFTDNYMIWVRQAPGQGLEWMGDINPYNGGTTFNQKFKGRVTITADKSTSTAYMELSSLRSEDTAVYYCARESPYFSNLYVMDYWGQGTLVTVSS
VL: NIVLTQSPATLSLSPGERATLSCKASQSVDYDGDNYMNWYQQKPGQAPRLLIYAASNLESGIPARFSGSGSGTDFTLTISSLEPEDFAVYYCHLSNEDLSTFGGGTKVEIKR
notes: Made in-house; also called Cabiralizumab; 对照基准物
binds: all assays above
